We go through ten molecules from doi:10.1101/2022.01.05.475064.

The chains are these.
B1: NtQPT P1 (G-BOX I) (dsDNA)
DNA 1: CATAAATAAAACGTGTTCAGCTACTAAAAC
DNA 2: GTTTTAGTAGCTGAACACGTTTTATTTATG
B2: NtPMT P2 (G-BOX II) (dsDNA)
DNA 1: TACTGTTTCCGCAACGTGCTCTTCATCAGG
DNA 2: CCTGATGAAGAGCACGTTGCGGAAACAGTA
B3: NtPMT P1 (G-BOX I) (dsDNA)
DNA 1: CAGTCTAACCATGCACGTTGTAATGATTTT
DNA 2: AAAATCATTACAACGTGCATGGTTAGACTG
B4: NtQPT Mut P1 (dsDNA)
DNA 1: CATAAATAAAATTCATTCAGCTACTAAAAC
DNA 2: GTTTTAGTAGCTGAATGAATTTTATTTATG
B5: NtPMT Mut P2 (G-mut II) (dsDNA)
DNA 1: TACTGTTTCCGCAATCTTCTCTTCATCAGG
DNA 2: CCTGATGAAGAGAAGATTGCGGAAACAGTA
B6: NtMYB12 P1 (G-BOX I) (dsDNA)
DNA 1: AACTTGAAATAATACGTTAAAAGATAAAA
DNA 2: TTTTATCTTTTAACGTATTATTTCAAGT
B7: NtPMT Mut P1 (G-mut I) (dsDNA)
DNA 1: CAGTCTAACCATGATTAATGTAATGATTTT
DNA 2: AAAATCATTACATTAATCATGGTTAGACTG
B8: NtMYB12 P2 (G-BOX II) (dsDNA)
DNA 1: AGTCAACTTTGCAACGTAAAAGTCCACACA
DNA 2: TGTGTGGACTTTTACGTTGCAAAGTTGACT
B9: NtODC Mut P1 (dsDNA)
DNA 1: ATCTGATCACCTAATATCACCAAGAAAATA
DNA 2: TATTTTCTTGGTGATATTAGGTGATCAGAT
B10: NtODC P1 (G-BOX I) (dsDNA)
DNA 1: ATCTGATCACCTAACGTGACCAAGAAAATA
DNA 2: TATTTTCTTGGTCACGTTAGGTGATCAGAT

For this series, the target named is T1, NtHY5 (6xHis-HY5) (Nicotiana tabacum, UniProt A0A1S3YJY6 1-158).
T1 sequence: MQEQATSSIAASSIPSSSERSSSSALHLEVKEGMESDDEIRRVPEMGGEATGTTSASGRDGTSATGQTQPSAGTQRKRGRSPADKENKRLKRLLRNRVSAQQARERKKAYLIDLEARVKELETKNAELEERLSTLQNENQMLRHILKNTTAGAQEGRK
Kind of series: EMSA. (In EMSA bound probe runs differently from free probe, usually more slowly.)
Take B1: the binding result is “binds”. In the case of B2, the binding result is recorded as “binds”.

For B3, the binding result is “binds”.

In the case of B4, the binding result is given as “no binding”. Then B5, with “no binding”. To B6 belongs “binds”; to B7, “no binding”; to B8, “binds”. Then B9, with “no binding”; and B10, with “binds”.
